Reference: patent US11124785B2, “Rothia subtilisins, S8A family proteases, as therapeutic enzymes for application in gluten intolerance disorders” (TRUSTEES OF BOSTON UNIVERSITY, priority 2016, dated 2021)

Key:
casein = assay: Casein zymography of R. aeria cell proteins; type: biochemical; details: excised bands 1-4, R. aeria cells, 1% casein
Protocol: Bands 1-4 were excised and subjected to mass spectrometric analysis of the amino acid sequences and identification of the protein. The protein was identified as BAV86562.1 from Rothia aeria.
SDS-PAGE and casein zymography—The four cell pellets were resuspended each in 200 μl zymogram sample buffer^2. To separate the proteins, the samples were applied to a non-reducing (no DTT or β-mercaptoethanol-containing) 6% SDS-PAGE gel of 16 cm×20 cm×0.15 cm, using a protean II xi cell system (Bio-Rad, Hercules, Calif.). The composition of this gel was the same as that of previously published 6% gliadin zymogram gels but without incorporation of gliadin^2. After electrophoresis at a constant voltage of 120V at 4° C., the gel was divided in two halves (“A-gel” and “B-gel”). One-half (“A-gel”) was stained with 0.1% Coomassie Brilliant Blue in 40% (v/v) methanol/10% (v/v) acetic acid. The other half (“B-gel”) was developed as a zymogram gel^3. (See FIGS. 12A and 12B). For this, the B-gel was washed twice for 30 min in buffer containing 2.5% Triton X-100 (renaturing buffer; Life Technologies, Carlsbad, Calif.), followed by washing twice for 1 h in buffer containing 20 mM Tris-HCl, pH 7.5 (developing buffer; Life Technologies, Carlsbad, Calif.). The B-gel was then incubated in developing buffer supplemented with 1% casein (Sigma, St. Louis, Mo.) at 37° C. for 1.5 h. […]

subtilisin A = target: T1, subtilisin A (Bacillus licheniformis, UniProt P00780); assay: Inhibition of subtilisin A by Eglin C; type: biochemical; details: Eglin C 1.2 μM; Suc-AAPF-pNA
T1 construct: purchased Sigma
Protocol: (§1) Hydrolysis of paranitroanilide-derivatized substrates—Paranitroanilide (pNA)-derivatized tripeptide substrates were chemically synthesized at >90% purity (21st Century Biochemicals, Marlborough, Mass.). The substrates obtained were Z-YPQ-pNA, Z-QQP-pNA, Z-LPY-pNA, Z-PFP-pNA, Z-PPF-pNA, where Z=benzyloxycarbonyl, Y=tyrosine, P=proline, Q=glutamine, L=leucine, and F=phenylalanine Suc-AAPF-pNA (SEQ ID NO: 4) was obtained from Sigma, where Suc=N-succinyl and A=alanine. The peptides were dissolved in 75-100% DMSO at 10 mM, and were used at a final concentration of 200 μM in 50 mM TrisHCl pH 8.0. Purified Rothia enzyme or subtilisin A from Bacillus licheniformis (Sigma) were tested at final concentrations of 1 μg/ml. Some experiments were conducted in the presence of inhibitors 4-(2-Aminoethyl) benzenesulfonyl fluoride (AEBSF), Aprotinin, E-64, EDTA, phenylmethanesulfonyl fluoride (PMSF) and Eglin C, which were tested at final concentrations of 10 mM, 0.08 mM, 0.1 mM, 1.5 mM, 1 mM, and 0.06-1.2 μM, respectively. Enzymes were preincubated with the inhibitors for 20 min before adding Suc-AAPF-pNA (SEQ ID NO: 4). Substrate hydrolysis was monitored for 10 h at 405 nm using a Genios microtiter plate reader (Tecan, Männedorf, Switzerland) in the kinetic mode at 37° C.

[1] = test system: R. mucilaginosa enzyme preparation (Rmep); assay: Inhibitor profile of Rmep (Suc-AAPF-pNA hydrolysis); type: biochemical, Rothia mucilaginosa; details: Eglin C 1.2 μM; Suc-AAPF-pNA
Protocol: Inhibitors AEBSF, Aprotinin, E-64, EDTA, PMSF and Eglin C were tested at final concentrations of 10 mM, 0.08 mM, 0.1 mM, 1.5 mM, 1 mM, and 0.06 μM, respectively. Rmep was added at a final concentration of 5.7 μg/ml. The percent inhibition was determined from the ratio of the initial velocities of hydrolysis of Suc-AAPF-pNA (SEQ ID NO: 4) in the absence and presence of inhibitor.
as §1

[2] = literature reference; cited from earlier work

T1 sequence (P00780 106-379): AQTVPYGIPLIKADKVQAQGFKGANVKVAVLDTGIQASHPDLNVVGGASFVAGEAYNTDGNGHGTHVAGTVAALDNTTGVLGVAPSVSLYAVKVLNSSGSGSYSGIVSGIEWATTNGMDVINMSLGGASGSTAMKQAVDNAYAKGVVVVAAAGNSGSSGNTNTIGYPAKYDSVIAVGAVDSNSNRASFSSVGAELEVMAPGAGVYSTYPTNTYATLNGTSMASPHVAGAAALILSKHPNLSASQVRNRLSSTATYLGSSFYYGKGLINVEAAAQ

B1: KGJ00122.1: peptidase S8, subtilisin from Rothia dentocariosa (protein, listed as Rothia dentocariosa)
chain: MPKNTPIRGLSRACLSATLGVTMAITAGLPATAAPAGDPDTPVAQDIARNSREHAVLSDSMKKAEGNIPVFVQFKGKGAYEQTQSPAVLANKQAPINKQAEVQAIKTQVQSQAQAAAQSTGAKTLYTTHNIMRGVALQGDAAQIRALANNPEVERITPIVPKKKQNAGSVVDTGAAENWARENSGYTGKDVKIAVVDSGIDYTHSDFGGPGTVEAFNKATKLTEMPAADSGLYDAKKYIGGYDLVGDSYDGTNQTTPDNNPIDCSAGGHGTHVAGTAAGYGVNQDGTTFRGDYSKLTAEQLNQMKIGPGAAPEAQLYSFRVFGCTGTTAVVVQALDRTLDPNGDGDFSDRANIVNLSIGGEFSPPDDADAYAVESLNRQGVLAVVSAGNATDYYGRGDTYSDSGQPANAVSALTVANSIGSSYAVDSMEIQAPANVAGKVPGDYTVSYTYTGAKPEALTGTVVTPSESNKFGCEAFSAEDAAKIKDKWVFIEWANADGSLPCGSKVRFDNVEKAGGKGVVLSSEEEKPALPIGGNESIPGFRVAKSASAKVREAAATGELKVRLGADLKESLRVPSNKKDQLTASSARGYHGTYGYTKPDVAAPGNNISSARVGTGTGGISYTGTSMSAPFAAGVAAQVLQANQSYGPTQLKAAIMNSANHDVRTADGNVYAVDRVGSGRIDAKAAAETKVLLYNADRPAQVSQTFGVLEYAVNEGKQTLTREMTVENFDSHTHTYNISYAGSTDMPGVEFSLPSNITVNPGEKKNFTVTITIDPAAMEKTMDPAMEKTHNSVDPYGDGTELVPEQYRQFIASESGRILLTEGAATLRAPIHAAPKPASAMKVEGSSVEIPAGEHQANLKLTGTELNQRGYKSLLGAFEHGASIERTSPVKLDVSSNAKANMQHVGAASTAPALKASGGNPNDGLLAFGISTWANWDVVSTENTFTVNIDTDGNNRADYMLVTDRAKGIDFPIVRLYGYKNGNLEQIAYYPLNNAWGDTDTNMMDSNALVMAVPLKDLGLSAEKTKDIKYSVSATTQYAWTNVSETGWINYRPFDPKLWFSGTAATVPGFFADAPSSELVAHRAEGATDVKALFLHMHNTTGDLSGLNGAAGNRAQVLEVTEQQQLDPAPSRFTDVPAENQFYAEINWLAQRRITTGYPDGTFRPGENVERGAMAAYFYRLAGTPQFTAPDNPTFSDVPKSHPFYKEIEWMAARGITTGYGDGTFRPSDSVNRDAMAAFFYRYANSPQFAAPAASPFKDVPANSQFYKEIAWLAEQGITKGWDDGTYRPGEPIHRDAMAAFLYRYSDKVLK
In the case of B1, the “activity in the casein degradation assay (zymogram)” value (casein) is reported as “gluten-degrading properties”.

B2: Eglin C: an effective inhibitor of B. licheniformis subtilisin A (protein)
chain: TEFGSELKSFPEVVGKTVDQAREYFTLHYPQYDVYFLPEGSPVTLDLRYNRVRVFYNPGTNVVNHVPHVG
With B2 the “inhibition of B. licheniformis subtilisin A by Eglin C” value (subtilisin A) was “effective inhibitor” and the “inhibition of Rmep by high concentrations of Eglin C” value [1] was “only partly inhibited”.

B3: BAV86562.1: Rothia aeria protein annotated glycerol-3-phosphate ABC transporter, belongs to the subtilisin family (peptidase S8) (protein, listed as Rothia aeria)
chain: MAITAGLPATAAPAGDPDTPVAQDIARNSREHAVLSDSMKKAEGNIPVFVQFKGKGAYEQTQSPAVLANKQAPTNKQAEVQAIKTQVQSQAQAAAQSTGAKTLYTTHNIMRGVALQGDAAQIRALANNPEVERITPIVPKKKQNAGSVVDTGAAENWARENSGYTGKDVKIAVVDSGIDYTHADFGGPGTVEAFNKATKLTEMPAADSGLYDAKKYIGGYDLVGDSYDGTNQTAPDNNPIDCSAGGHGTHVAGTAAGYGVNQDGTTFRGDYSKLTAEQLNQMKIGPGAAPEAQLYSFRVFGCTGTTGVVVQALDRTLDPNGDGDFSDRANIVNLSIGGEFSPPDDADAYAVESLNRQGVLAVVSAGNATDYYGRGDTYSDSGQPANAVSALTVANSIGSSYAVDSMEIQAPANVAGKVPGDYTVSYTYTGAKPEALTGTVVTPSESNKFGCEAFSAEDAAKIKDKWVFLEWANADGSLPCGSKVRFDNVEKAGGKGVVLSSEEEKPALPIGGNESIPGFRVAKSASAKVREAAANGELKVRLGTDLKESLRVPSNKKDQLTASSARGYHGTYGYTKPDVAAPGNNISSARVGTGTDGISYTGTSMSAPFAAGVAAQVLQANQSYGPTQLKAAIMNSANHDVRTADGNVYAVDRVGSGRIDAKAAAETKVLLYNADRPAQVSQTFGVLEYAVNEGKQTLTREMTVENFDSHTHTYNISYAGSTDMPGVEFSLPSNITVNPGEKKNFTVTITIDPAAMEKTMDPAMEKTHNSVDPYGDGTELVPEQYRQFIASESGRILLTEGAATLRAPIHAAPKPASAMKVEGSSVEIPAGEHQANLKLTGTELNQRGYKSLLGAFEHGASIERTSPVKLDVSSNAKANMQHVGAASTAPALKASGGNPNDGLLAFGISTWANWDVVSTENTFTVNIDTDGNNRADYMLVTDRAKGIDFPIVRLYGYKNGNLEQIAYYPLNNAWGDTDTNMMDSNALVMAVPLKDLGLSAEKTKDIKYSVSATTQYAWTNVSETGWINYRPFDPKLWFSGTAATVPGFFADAPSSELVAHRAEGATDVKALFLHMHNTTGDLSGLNGAAGNRAQVLEVTEQQQLDPAPSRFTDVPAENQFYAEINWLAQRRITTGYPDGTFRPGENVERGAMAAYFYRLAGTPQFTAPDNPTFSDVPKSHPFYKEIEWMAARGITTGYGDGTFRPSASVNRDAMAAFFYRYANSPQFAAPAASPFKDVPANSQFYKEIAWLAEQGITKGWDDGTYRPGEPIHRDAMAAFLYRYSDKVLK
In the case of B3, the “pH values down to which activity is retained” value [2] is listed as ≥ 3.0.
